Legend:
[1] = test system: wild-type S. cerevisiae BY4741; experiment: Growth of wild-type yeast in glyphosate; type: cell-based, Saccharomyces cerevisiae; conditions: 5 mM and 10 mM glyphosate
From the text: Previous research has primarily focused on E. coli as a chassis for selecting improved EPSP synthases. The present example details the development of S. cerevisiae as a model eukaryotic system for glyphosate resistance, thus requiring synthetically addicting this cell to the expression and activity of EPSPS in an effort to create a growth-based selection scheme. Yeast have previously been reported to be resistant to glyphosate.

[2] = test system: S. cerevisiae strain sKR-024; experiment: Growth of synthetic yeast strain sKR-024 expressing EPSPS variants with or without glyphosate; type: cell-based, Saccharomyces cerevisiae; conditions: for glyphosate tolerance in synthetic yeast host: mutants isolated from directed evolution
Description: EPSPS variants were re-cloned into a clean p416-Core1p backbone and transformed into strain sKR-024 as described above. Colonies were then picked in triplicate into YSC-Ura-Leu and outgrown for 2 days at 30° C. Cultures were then diluted back to OD 0.001 in yeast minimal media (YMM) containing varying amounts of glyphosate as indicated. Growth rate measurements were then obtained using an Infinite M200 PRO microplate reader (Tecan, Männedorf, Switzerland) with incubation at 30° C. for 72-120 hours depending on growth rate of selected variants.
To determine if this system could further corroborate observations from previous literature, the well-studied EPSPS mutants T102I and P106S, and the combined double mutant TIPS (T102I-P106S) were generated and complemented into this yeast system. These mutations were reported to result in varying degrees of glyphosate resistance.
Having established low copy number and weak promoter expression of EPSPS variants, it was sought to recharacterize phenotypes under field conditions that are used in planta. […] It has been reported previously that under standard glyphosate foliar application, 0.3 mM or more of glyphosate (gly) can accumulate in a plant's root nodules and meristems. […] These trends support reported literature of mutants P106S and TIPS grown in various plant hosts. As a result, the present synthetic yeast model system closely resembles in planta observations and thus can be used to select for dual-trait EPSPS variants aimed at both enzymatic efficiency and glyphosate resistance.
Select mutants isolated from the final directed evolution campaign with the improved selection strategy were further evaluated in assorted glyphosate concentrations to determine growth characteristics. Mutants isolated from an EPSPS background were evaluated in media containing 0 mM and 0.25 mM glyphosate with the latter being the concentration at which wild-type EPSPS cannot grow after 100 hours. […] The non-glyphosate mono selection highlighted in blue represents mutations resulting from 5 subcultures in 0 mM glyphosate. The low glyphosate dual selection highlighted in light green represents mutants resulting from an additional subculture into 0.5 mM glyphosate. Lastly, the high glyphosate dual selection highlighted in dark green represent mutations isolated after subcultures in increasing levels of glyphosate, up to 10 mM.

transgenic maize plants [3] = experiment: Greenhouse glyphosate spray test on hybrid (hemizygous) transgenic maize; type: in vivo, Zea mays
Description: To further evaluate the performance of EPSPS variants for glyphosate tolerance, transgenic maize plants comprising a single copy of the transgene encoding the EPSPS variants TIPS-P126S-M217L-K296R or TIPS-P126S-K296R were grown to maturity. Homozygous transgenic plants were crossed with an inbred line to produce hybrid seeds.
Plants from the hybrid seeds (hemizygous for the transgenes) of two independent transformation events for each of the two variants were grown in the greenhouse for glyphosate spray test. Roundup® PowerMax3, a commercial formulation of glyphosate, was applied at the third leaf stage at two rates: 1120 gram/hectare (1× the field rate) and 2240 gram/hectare (2× the field rate). The controls included an untreated untransformed control without glyphosate treatment, an untransformed control sprayed with glyphosate, and a TIPS positive control both sprayed with glyphosate. Glyphosate herbicide injury (plant stunting, chlorosis, necrosis, malformation, and death) was assessed by visual inspection of the plants 18 days after herbicide treatment. Herbicide injury rate was presented on a scale of 0 to 100 with “0” being no visible crop injury and “100” being complete crop injury or death.

transgenic maize plants [4] = experiment: Maize transformation with glyphosate selection, plantlet recovery and quality checks; type: in vivo, Zea mays
From the text: Maize was used as a model system to test the functionality of the EPSPS variants because of detailed previous characterization of glyphosate tolerance in maize and a suitable transgenic plant generation protocol that relies on glyphosate. Plant transformation vectors were generated in which the native maize EPSPS sequence was used, which includes the native gene promoter elements, the native introns and exons and the native 3′ untranslated region and introduced mutations that corresponded to each of the selected amino acid changes. The native sequence was used to mimic as closely as possible how the selected EPSPS variants would perform if the variants were introduced directly in the genome without the help of strong expression elements. The following variants were selected for testing in a transgenic maize system: TIPS (as a control); TIPS-P126S-M217L-K296R; TIPS-P126S-K296R; T102I-P126S-K296R (where only the T102I change is present); P106S-P126S-K296R (where only the P106S change is present); and P126S-K296R (where neither of the TIPS changes are present).
Transgenic maize plants that expressed each of the six EPSPS variants were generated to determine if the variants conferred glyphosate tolerance to plants. The full DNA sequence encoding TIPS EPSPS (SEQ ID NO:1) was cloned from maize genomic DNA. In this sequence, the promoter and 5′ UTR are nucleotides 1:2556; the chloroplast transit peptide sequence is nucleotides 2557:2742; EXON 1 is nucleotides 2743:2856; INTRON 1 is nucleotides 2857:3384; EXON 2 is nucleotides 3385:3626; INTRON 2 is nucleotides 3627:3725; EXON 3 is nucleotides 3726:3879; INTRON 3 is nucleotides 3880:4152; EXON 4 is nucleotides 4153:4367; INTRON 4 is nucleotides 4368:4877; EXON 5 is nucleotides 4878:4995; INTRON 5 is nucleotides 4996:5155; EXON 6 is nucleotides 5156:5366; INTRON 6 is nucleotides 5367:5446; EXON 7 is nucleotides 5447:5508; INTRON 7 is nucleotides 5509:5617; EXON 8 is nucleotides 5618:5836; and the 3′ UTR is nucleotides 5837:6368. Mutations were then introduced into the EPSPS coding sequence in order to produce each of the six EPSPS variants to be tested. These mutated full genomic DNA sequences were then each cloned as a single expression cassette into plant transformation vectors.
Agrobacterium tumefaciens-mediated plant transformation was performed using methods known in the art. Glyphosate selection was used to select for transgenic events containing the transgene of interest and further screened for only those EPSPS variants that provided effective glyphosate tolerance in a plant cell. While all six EPSPS variants began the transformation process with the same amount of starting maize cellular material, there were differences in the number of small plantlets recovered that were capable of being transplanted to greenhouse soil media (Table 4). Transgenic events were further analyzed to determine transgene copy number. Healthy events with single copy of the transgene of interest were grown in the greenhouse soil media. Only three of the six EPSPS variants had more than one plant surviving. Up to twenty-five of these developing R0 plants were transplanted to larger pots and allowed to grow to maturity for seed collection in the greenhouse.

Molecule	growth inhibition [1]	growth in yeast minimal media without glyphosate ([2]; 0 mM glyphosate)	glyphosate tolerance in synthetic yeast host [2]	glyphosate tolerance in synthetic yeast host ([2]; listed as TIPS P126S/M217L/K296R)	tolerance to glyphosate (transgenic maize plants [3]; 2× field rate)	Average Injury At 1120 g/ha (transgenic maize plants [3]; Roundup PowerMax3, 1× field rate, 18 days after treatment, scale of 0 to 100)	Average Injury At 2240 g/ha (transgenic maize plants [3]; Roundup PowerMax3, 2× field rate, 18 days after treatment, scale of 0 to 100)	tolerance to glyphosate (transgenic maize plants [3]; equivalent 1× field dose)	Number of young plants passing quality control checks (transgenic maize plants [4]; in vivo)	Number of plantlets generated (transgenic maize plants [4]; under glyphosate selection, same amount of starting material)
O=C(O)CNCP(=O)(O)O [glyphosate, N-phosphonomethylglycine]	slight growth inhibition									
TIPS-P126S-M217L-K296R: maize EPSPS variant, SEQ ID NO:10 (protein, Zea mays) AGAEEIVLQPIKEISGTVKLPGSKSLSNRILLLAALSEGTTVVDNLLNSEDVHYMLGALRTLGLSVEADKAAKRAVVVGCGGKFPVEDSKEEVQLFLGNAGIAMRSLTAAVTAAGGNATYVLDGVSRMRERPIGDLVVGLKQLGADVDCFLGTDCPPVRVNGIGGLPGGKVKLSGSISSQYLSALLMAAPLALGDVEIEIIDKLISIPYVEMTLRLLERFGVKAEHSDSWDRFYIKGGQKYKSPKNAYVEGDASSASYFLAGAAITGGTVTVEGCGTTSLQGDVKFAEVLEMMGARVTWTETSVTVTGPPREPFGRKHLKAIDVNMNKMPDVAMTLAVVALFADGPTAIRDVASWRVKETERMVAIRTELTKLGASVEEGPDYCIITPPEKLNVTAIDTYDDHRMAMAFSLAACAEVPVAIRDPGCTRKTFPDYFDVLSTFVKN		high growth in non-glyphosate	high glyphosate tolerance	high glyphosate tolerance (even higher than TIPS)	full tolerance	0	0	excellent tolerance	13	92
